# Measurements taken from patent publication US20250042970A1 (AURINIA PHARMACEUTICALS, published 2025).
# T1: human APRIL (Acros Biosystems) (human, UniProt O75888 115-250, limits assumed)
# T1 sequence: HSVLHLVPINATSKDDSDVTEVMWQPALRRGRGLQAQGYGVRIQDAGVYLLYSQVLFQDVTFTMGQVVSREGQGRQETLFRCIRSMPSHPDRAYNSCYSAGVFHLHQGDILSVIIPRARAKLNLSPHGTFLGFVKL
# T2: human APRIL (Examples 21-23) (human, UniProt O75888 105-250)
# T2 construct: also called huAPRIL
# T2 sequence: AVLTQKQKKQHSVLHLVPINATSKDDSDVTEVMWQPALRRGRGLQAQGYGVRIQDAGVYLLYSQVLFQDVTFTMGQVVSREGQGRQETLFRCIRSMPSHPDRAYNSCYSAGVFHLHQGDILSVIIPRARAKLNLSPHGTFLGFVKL
# T3: murine APRIL (Examples 22-23) (mouse, UniProt Q9D777 96-241)
# T3 sequence (looked up): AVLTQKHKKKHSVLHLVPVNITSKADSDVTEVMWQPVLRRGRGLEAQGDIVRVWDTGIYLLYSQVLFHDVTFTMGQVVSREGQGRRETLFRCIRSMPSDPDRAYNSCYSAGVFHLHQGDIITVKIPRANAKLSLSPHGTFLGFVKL
# Experiments:
# [1] = molecular target: human BAFF (Acros Biosystems) (human, UniProt Q9Y275 134-285); assay: cell-based or functional assay
# [2] = molecular target: T1, human APRIL (Acros Biosystems); assay: cell-based or functional assay
# [3] = molecular target: human BAFF-60mer (Adipogen) (human, UniProt Q9Y275 134-285); assay: cell-based or functional assay
# [4] = molecular target: T4, human BAFF (Examples 21-23) (human, UniProt Q9Y275 134-285); assay: assay not given (Example 21)
# T4 construct: also called huBAFF
# [5] = molecular target: T2, human APRIL (Examples 21-23); assay: assay not given (Example 21)
# [6] = molecular target: T4, human BAFF (Examples 21-23); assay: assay not given (Example 21); remark: listed apart in the source
# [7] = molecular target: T2, human APRIL (Examples 21-23); assay: assay not given (Example 21); remark: listed apart in the source
# [8] = molecular target: T4, human BAFF (Examples 21-23); assay: SPR (Carterra LSA, HC30M chip)
# Procedure: (§1) The KD of a BAv9-1 CRD-IgG4 Fc fusion protein, and other BAFF or APRIL binding molecules, the BAFF/APRIL binding molecule Atacicept and a different recombinant TACI-Fc fusion protein RC18 (also known as Telitacicept), to human or murine BAFF or human or murine APRIL were determined by surface plasmon resonance (Carterra LSA, HC30M sensor chip).
# [9] = molecular target: T2, human APRIL (Examples 21-23); assay: SPR (Carterra LSA, HC30M chip)
# Procedure: as §1
# [10] = molecular target: T5, murine BAFF (Examples 22-23) (mouse, UniProt Q9WU72 127-309); assay: SPR (Carterra LSA, HC30M chip)
# Procedure: as §1
# [11] = molecular target: T2, human APRIL (Examples 21-23); assay: colorimetric ELISA, inhibition curves
# Text: (§2) A colorimetric ELISA was used to assess the binding of BAFF/APRIL binding molecules to human and murine BAFF and APRIL. Inhibition curves based on binding to soluble human and murine BAFF and APRIL were used to determine the IC₅₀ values for binding of the exemplary BCMA CRD variant-IgG4 fusion protein BAv9-1 CRD-IgG4 Fc, Atacicept and a different recombinant TACI-Fc fusion protein RC18 (also known as Telitacicept).
# (§3) FIG. 34A and FIG. 34B show the inhibition curves of the three different BAFF/APRIL binding molecules to murine BAFF (FIG. 34A) and murine APRIL (FIG. 34B). Compared to the IC₅₀ values determined for Atacicept and RC18 (Telitacicept), the IC₅₀ of the exemplary BCMA CRD variant-IgG4 fusion protein BAv9-1 CRD-IgG4 Fc was orders of magnitude lower for both murine BAFF and murine APRIL. The IC₅₀ values for BAv9-1 CRD-IgG4 Fc for murine BAFF and murine APRIL were 1.5 nM and 2.7 nM respectively.
# [12] = molecular target: T5, murine BAFF (Examples 22-23); assay: colorimetric ELISA, inhibition curves
# Text: as §2, §3
# [13] = molecular target: T3, murine APRIL (Examples 22-23); assay: colorimetric ELISA, inhibition curves
# Text: as §2, §3
# [14] = molecular target: T3, murine APRIL (Examples 22-23); assay: SPR (Carterra LSA, HC30M chip); murine ligand (Table 13)
# Procedure: as §1
# [15] = molecular target: T4, human BAFF (Examples 21-23); assay: ratio of KD values of Table 11, assay not stated (Example 21); reference Atacicept
# [16] = molecular target: T2, human APRIL (Examples 21-23); assay: as above
# T5 sequence (Q9WU72 127-309 limits assumed): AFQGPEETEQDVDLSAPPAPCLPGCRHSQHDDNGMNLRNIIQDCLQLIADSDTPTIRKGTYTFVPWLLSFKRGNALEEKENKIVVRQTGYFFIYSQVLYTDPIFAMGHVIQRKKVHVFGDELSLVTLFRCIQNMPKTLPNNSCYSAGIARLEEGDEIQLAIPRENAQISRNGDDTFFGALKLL
binder,measurement,setting,value
"BAv9-1 CRD-IgG4 Fc (Fc fusion, mature expressed protein; also called BAv9-1 CRD-Ig Fc; exemplary BCMA CRD variant-IgG4 fusion protein) AGQCSQNEYFDHLIRACIPCQLRCSSNTPPLTCQRYCNAGVTNSVGGGGSAESKYGPPCPPCPAPEAAGGPSVFLFPPKPKDTLMISRTPEVTCVVVDVSQEDPEVQFNWYVDGVEVHNAKTKPREEQFNSTYRVVSVLTVLHQDWLNGKEYKCKVSNKGLPSSIEKTISKAKGQPREPQVYTLPPSQEEMTKNQVSLTCLVKGFYPSDIAVEWESNGQPENNYKTTPPVLDSDGSFFLYSRLTVDKSRWQEGNVFSCSVMHEALHNHYTQKSLSLSPGK","IC50 for proliferation of stimulated B cells, Donor 1, BAFF + anti-IgM",[1],0.311 nM
same,"IC50 for proliferation of stimulated B cells, Donor 2, BAFF + anti-IgM",[1],0.000215 nM
same,"IC50 for proliferation of stimulated B cells, Donor 3, BAFF + anti-IgM",[1],0.0201 nM
same,"IC50 for proliferation of stimulated B cells, Donor 1, APRIL + anti-IgM",[2],0.662 nM
same,"IC50 for proliferation of stimulated B cells, Donor 2, APRIL + anti-IgM",[2],0.226 nM
same,"IC50 for proliferation of stimulated B cells, Donor 3, APRIL + anti-IgM",[2],0.366 nM
same,"IC50 for proliferation of stimulated B cells, Donor 1, BAFF-60mer + anti-IgM",[3],0.835 nM
same,"IC50 for proliferation of stimulated B cells, Donor 2, BAFF-60mer + anti-IgM",[3],0.577 nM
same,"IC50 for proliferation of stimulated B cells, Donor 3, BAFF-60mer + anti-IgM",[3],0.61 nM
same,fold higher binding affinity vs Atacicept,[4],600 to 800 fold
same,fold higher binding affinity vs Atacicept,[5],600 to 800 fold
same,Kd,[6],0.00024 nM
same,Kd,[7],0.00015 nM
same,Kd,[8],0.117 nM
same,Kd,[9],0.025 nM
same,Kd,[10],0.031 nM
same,IC50,[11],0.002 nM
same,IC50,[12],1.5 nM
same,IC50,[13],2.7 nM
same,Kd,[14],0.00015 nM
same,fold higher binding affinity compared to Atacicept,[15],600 to 800 fold
same,fold higher binding affinity compared to Atacicept,[16],600 to 800 fold
